# PMC3946280, “Crystal Structures of the Novel Cytosolic 5′-Nucleotidase IIIB Explain Its Preference for m^7GMP” (PLoS ONE, 2014)
# Substitutions are numbered along the chain they refer to. Names may count otherwise.
# B1: DmcN-IIIB (Drosophila melanogaster) (protein)
# chain: MGFDEKREPTGGRLRLQDIPALTQDHCRMRDPAEVERIINEFVIGGPERMQIVSDFDYTITKQRTEDGGAVPSSFGIFNACQSLPENFKAETDKLYHKYRPIEIDPHMPIAEKVQYMIEWWTKSGELTSGFPFDQSEIDQIASKYTHALRDRTHEFFADLQRLGIPTLVFSAGLGNSVVSVLRQANVLHPNVKVVSNFLQFRDGLLDGFQQPMIHTFNKNETVLNETSEYYDLVHTRDHIIVMGDSIGDADMASGVPASSHIMKIGFLFDHVEANMKKYMDTFDIVLVDDQTMDVPRTLLSLIEKQHKLNLEAPKQSSL
# notes: full length 1-319; His6-SUMO fusion from pET-SUMOadapt in E. coli Rosetta 2(DE3), tag cleaved (stated for crystallization)
# B2: HscN-IIIB (Homo sapiens) (protein)
# chain: MAEEVSTLMKATVLMRQPGRVQEIVGALRKGGGDRLQVISDFDMTLSRFAYNGKRCPSSYNILDNSKIISEECRKELTALLHHYYPIEIDPHRTVKEKLPHMVEWWTKAHNLLCQQKIQKFQIAQVVRESNAMLREGYKTFFNTLYHNNIPLFIFSAGIGDILEEIIRQMKVFHPNIHIVSNYMDFNEDGFLQGFKGQLIHTYNKNSSACENSGYFQQLEGKTNVILLGDSIGDLTMADGVPGVQNILKIGFLNDKVEERRERYMDSYDIVLEKDETLDVVNGLLQHILCQGVQLEMQGP
# B3: DmcN-IIIB (Drosophila melanogaster; G76N) (protein)
# chain: B1 chain with G76N
# notes: as for B1
# B4: DmcN-IIIB (Drosophila melanogaster; F75H) (protein)
# chain: B1 chain with F75H
# notes: as for B1
# B5: DmcN-IIIB (Drosophila melanogaster; F75H/W121Y) (protein)
# chain: B1 chain with F75H, W121Y
# notes: as for B1
# B6: DmcN-IIIB (Drosophila melanogaster; G76N/W121Y) (protein)
# chain: B1 chain with G76N, W121Y
# notes: as for B1
# B7: DmcN-IIIB (Drosophila melanogaster; F75H/G76N/W121Y) (protein)
# chain: B1 chain with F75H, G76N, W121Y
# notes: as for B1
# B8: DmcN-IIIB (Drosophila melanogaster; W121Y) (protein)
# chain: B1 chain with W121Y
# notes: as for B1
# Legend:
# HscN-IIIA = biological target: T1, HscN-IIIA (Homo sapiens, UniProt Q9H0P0); conditions: 37 °C; preincubated with 5 mM DTT
# T1 construct: gene NT5C3A
# DmcN-IIIB [1] = biological target: T2, DmcN-IIIB (Drosophila melanogaster, UniProt Q9W197); experiment: X-ray crystal structure, […] Å; type: binding; conditions: co-crystallized, no MgF3− density; pH 7.5; active site
# T2 construct: gene cN-IIIB; full length 1-319; His6-SUMO fusion from pET-SUMOadapt in E. coli Rosetta 2(DE3), tag cleaved (stated for crystallization)
# T2 sequence (Q9W197 1-319): B1 chain
# DmcN-IIIB [2] = biological target: T2, DmcN-IIIB; experiment: X-ray crystal structure, […] Å; type: binding; conditions: co-crystallized with MgF3− and Mg2+; pH 7.5; active site
# [3] = substrate: Nc1ccn([C@@H]2O[C@H](COP(=O)(O)O)[C@@H](O)[C@H]2O)c(=O)n1; experiment: colorimetric malachite green phosphate assay; type: biochemical, Drosophila melanogaster; conditions: 25 °C
# [4] = substrate: C[n+]1cn([C@@H]2O[C@H](COP(=O)(O)O)[C@@H](O)[C@H]2O)c2nc(N)[nH]c(=O)c21; experiment: colorimetric malachite green phosphate assay; type: biochemical, Drosophila melanogaster; conditions: 25 °C
# [5] = substrate: C[n+]1cn([C@@H]2O[C@H](COP(=O)(O)O)[C@@H](O)[C@H]2O)c2nc(N)[nH]c(=O)c21; experiment: colorimetric malachite green phosphate assay; type: biochemical, Homo sapiens; conditions: 37 °C, preincubated with 5 mM DTT
# purified protein = substrate: Nc1ccn([C@@H]2O[C@H](COP(=O)(O)O)[C@@H](O)[C@H]2O)c(=O)n1; experiment: purified protein; conditions: 37 °C, preincubated with 5 mM DTT
molecule,measurement,setting,value
C[n+]1cn([C@@H]2O[C@H](COP(=O)(O)O)[C@@H](O)[C@H]2O)c2nc(N)[nH]c(=O)c21 [m^7GMP],Km,HscN-IIIA,15 µM
Nc1ccn([C@@H]2O[C@H](COP(=O)(O)O)[C@@H](O)[C@H]2O)c(=O)n1 [CMP],Km,HscN-IIIA,80 µM
Nc1ccn([C@@H]2O[C@H](CO)[C@@H](O)[C@H]2O)c(=O)n1 [cytidine],"X-ray crystal structure, 2.05 Å",DmcN-IIIB [1],crystal structures of ^DmcN-IIIB bound to 7-methylguanosine or cytidine have been deposited
C[n+]1cn([C@@H]2O[C@H](CO)[C@@H](O)[C@H]2O)c2nc(N)[nH]c(=O)c21 [7-methylguanosine],"X-ray crystal structure, 1.65 Å",DmcN-IIIB [2],crystal structures of ^DmcN-IIIB bound to 7-methylguanosine or cytidine have been deposited
B1,Km,[3],48 µM
same,kcat,[3],12 s⁻¹
same,kcat/Km,[3],242000 M⁻¹ s⁻¹
same,Km,[4],12 µM
same,kcat,[4],4.8 s⁻¹
same,kcat/Km,[4],403000 M⁻¹ s⁻¹
B2,Km,[5],8 µM
same,kcat,[5],0.5 s⁻¹
same,kcat/Km,[5],64500 M⁻¹ s⁻¹
same,Km,purified protein,79 µM
same,kcat,purified protein,7 s⁻¹
same,kcat/Km,purified protein,87100 M⁻¹ s⁻¹
B3,Km,[3]; variant FNWW,51 µM
same,kcat,[3]; variant FNWW,8 s⁻¹
same,kcat/Km,[3]; variant FNWW,166000 M⁻¹ s⁻¹
same,Km,[4]; variant FNWW,2 µM
same,kcat,[4]; variant FNWW,1.1 s⁻¹
same,kcat/Km,[4]; variant FNWW,545000 M⁻¹ s⁻¹
B4,Km,[3]; variant HGWW,490 µM
same,kcat,[3]; variant HGWW,8 s⁻¹
same,kcat/Km,[3]; variant HGWW,16000 M⁻¹ s⁻¹
same,Km,[4]; variant HGWW,40 µM
same,kcat,[4]; variant HGWW,4.2 s⁻¹
same,kcat/Km,[4]; variant HGWW,106000 M⁻¹ s⁻¹
B5,Km,[3]; variant HGWY,93 µM
same,kcat,[3]; variant HGWY,3 s⁻¹
same,kcat/Km,[3]; variant HGWY,32500 M⁻¹ s⁻¹
same,Km,[4]; variant HGWY,2 µM
same,kcat,[4]; variant HGWY,1.5 s⁻¹
same,kcat/Km,[4]; variant HGWY,755000 M⁻¹ s⁻¹
B6,Km,[4]; variant FNWY,8 µM
same,kcat,[4]; variant FNWY,0.3 s⁻¹
same,kcat/Km,[4]; variant FNWY,37800 M⁻¹ s⁻¹
B7,Km,[3]; variant HNWY,315 µM
same,kcat,[3]; variant HNWY,9 s⁻¹
same,kcat/Km,[3]; variant HNWY,28800 M⁻¹ s⁻¹
same,Km,[4]; variant HNWY,11 µM
same,kcat,[4]; variant HNWY,0.5 s⁻¹
same,kcat/Km,[4]; variant HNWY,49500 M⁻¹ s⁻¹
B8,Km,[3]; variant FGWY,14 µM
same,kcat,[3]; variant FGWY,6 s⁻¹
same,kcat/Km,[3]; variant FGWY,410000 M⁻¹ s⁻¹
